In patent publication US20230272099A1 (Chugai, published 2023):
Where a chain is given by its changes, count along the chain named.

Columns and labels:
hCD137 (FXa digested) [1] = target: T1, hCD137 (FXa digested) (human, UniProt Q07011 24-186); test: SPR 37C, no ATP
T1 construct: Factor Xa digestion and Protein A removed the Fc; also called human CD137 extracellular domain
Description: (§1) Measurements of human CD137 binding were taken at 37° C. using 20 mM ACES (pH 7.4), 150 mM NaCl, 2 mM MgCl₂, and 0.05% Tween20 as running buffer. At first, antibodies were captured by interacting antibody solutions prepared in running buffer with the rabbit anti-mouse IgG (Thermo Scientific)-immobilized Series S Sensor Chip CM5 (GE Healthcare). The human CD137-binding activity in the presence of ATP and in the absence of ATP was then assessed by interacting with a human CD137 solution prepared in running buffer supplemented with a desired concentration of ATP, or a human CD137 solution prepared in running buffer without ATP. […] The chip was regenerated using 25 mM NaOH and 10 mM Glycine-HCl (pH 1.5), and measurements were performed by repeatedly capturing antibodies. Dissociation constant (KD) of the respective antibodies for human CD137 was calculated using Biacore T200 Evaluation Software 2.0. Specifically, the association rate constant ka (L/mol/s) and the dissociation rate constant kd (1/s) were calculated by global fitting of the sensorgrams obtained by measurement with the 1:1 Langmuir binding model, and the dissociation constant KD (mol/L) was calculated from these values.

hCD137 (FXa digested) [2] = target: T1, hCD137 (FXa digested); test: SPR 37C, 100 uM ATP
Description: as §1

hCD137 (FXa digested) [3] = target: T1, hCD137 (FXa digested); test: SPR 37C, 1 uM ATP
Description: as §1

hCD137 (FXa digested) [4] = target: T1, hCD137 (FXa digested); test: SPR 37C, 10 uM ATP
Description: as §1

T1 sequence (Q07011 other isoform, or with tags, fused parts or gaps limits assumed): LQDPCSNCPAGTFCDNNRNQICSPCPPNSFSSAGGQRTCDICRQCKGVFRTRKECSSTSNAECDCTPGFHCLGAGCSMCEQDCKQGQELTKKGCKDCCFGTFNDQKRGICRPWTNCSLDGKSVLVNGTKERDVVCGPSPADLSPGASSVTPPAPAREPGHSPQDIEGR

B1: 20H4.9-MB492/20H4.9LC-mk0 (antibody, mouse IgG1, kappa)
heavy: QVQLQQWGAGLLKPSETLSLTCAVYGGSFSGYYWSWIRQSPEKGLEWIGEINHGGYVTYNPSLESRVTISVDTSKNQFSLKLSSVTAADTAVYYCARDYGPGNYDWYFDLWGRGTLVTVSSAKTTPPSVYPLAPGSAAQTNSMVTLGCLVKGYFPEPVTVTWNSGSLSSGVHTFPAVLQSDLYTLSSSVTVPSSTWPSETVTCNVAHPASSTKVDKKIVPRDCGCKPCICEPNEVEDVFIFPPKPKDVLTITLTPKVTCVVVDISKDDPEVQFSWFVDDVEVHTAQTQPREEQFNSTFRSVSELPIMHQDWLNGKEFKCRVDSAAFPAPIEKTISKTKGRPKAPQVYTIPPPKEQMAKDKVSLTCMITDFFPEDITVEWQWNGQPAENYKNTQPIMDTDGSYFVYSKLNVQKSNWEAGNTFTCSVLHEGLHNHHTEKSLSHSPGK
light: EIVLTQSPATLSLSPGERATLSCRASQSVSSYLAWYQQKPGQAPRLLIYDASNRATGIPARFSGSGSGTDFTLTISSLEPEDFAVYYCQQRSNWPPALTFGGGTKVEIKRADAAPTVSIFPPSSEQLTSGGASVVCFLNNFYPKDINVKWKIDGSERQNGVLNSWTDQDSKDSTYSMSSTLTLTKDEYERHNSYTCEATHKTSTSPIVKSFNRNEC
notes: also called NS1-MB492
- Kd (hCD137 (FXa digested) [1]): 61.6 nM
- Kd (hCD137 (FXa digested) [2]): 50.4 nM
- Kd (hCD137 (FXa digested) [3]): 54.9 nM
- Kd (hCD137 (FXa digested) [4]): 53.5 nM

B2: 20H4.9-mIgG1/20H4.9LC-mk0 (antibody)
heavy: B1 heavy with E231T, P232V, N233P, E236S, D237S, D322N
light: B1 light
notes: also called NS1-mIgG1
- Kd (hCD137 (FXa digested) [1]): 61.7 nM
- Kd (hCD137 (FXa digested) [2]): 53.6 nM
- Kd (hCD137 (FXa digested) [3]): 56.2 nM
- Kd (hCD137 (FXa digested) [4]): 54.4 nM
